Reference: US20160090640A1

Biological target: GII.4 norovirus
Assay: capture on a column of Con A-linked resin, real-time RT-PCR; the dilution applied held about 3.39 copies/µL; no Ct value in the non-Con A-linked resin

Concanavalin A (Con A) (Sigma-Aldrich, USA) (from UniProt P02866 30-281)
virus concentrated through the Con A-linked resin column: 2.16 copies/µL
